{"source": "IntAct's records for PubMed 17595294", "parents": {"B1": {"name": "Glycine--tRNA ligase (Homo sapiens), P41250 (parent)", "chain": "MPSPRPVLLRGARAALLLLLPPRLLARPSLLLRRSLSAASCPPISLPAAASRSSMDGAGAEEVLAPLRLAVRQQGDLVRKLKEDKAPQVDVDKAVAELKARKRVLEAKELALQPKDDIVDRAKMEDTLKRRFFYDQAFAIYGGVSGLYDFGPVGCALKNNIIQTWRQHFIQEEQILEIDCTMLTPEPVLKTSGHVDKFADFMVKDVKNGECFRADHLLKAHLQKLMSDKKCSVEKKSEMESVLAQLDNYGQQELADLFVNYNVKSPITGNDLSPPVSFNLMFKTFIGPGGNMPGYLRPETAQGIFLNFKRLLEFNQGKLPFAAAQIGNSFRNEISPRSGLIRVREFTMAEIEHFVDPSEKDHPKFQNVADLHLYLYSAKAQVSGQSARKMRLGDAVEQGVINNTVLGYFIGRIYLYLTKVGISPDKLRFRQHMENEMAHYACDCWDAESKTSYGWIEIVGCADRSCYDLSCHARATKVPLVAEKPLKEPKTVNVVQFEPSKGAIGKAYKKDAKLVMEYLAICDECYITEMEMLLNEKGEFTIETEGKTFQLTKDMINVKRFQKTLYVEEVVPNVIEPSFGLGRIMYTVFEHTFHVREGDEQRTFFSFPAVVAPFKCSVLPLSQNQEFMPFVKELSEALTRHGVSHKVDDSSGSIGRRYARTDEIGVAFGVTIDFDTVNKTPHTATLRDRDSMRQIRAEISELPSIVQDLANGNITWADVEARYPLFEGQETGKKETIEE", "partner": "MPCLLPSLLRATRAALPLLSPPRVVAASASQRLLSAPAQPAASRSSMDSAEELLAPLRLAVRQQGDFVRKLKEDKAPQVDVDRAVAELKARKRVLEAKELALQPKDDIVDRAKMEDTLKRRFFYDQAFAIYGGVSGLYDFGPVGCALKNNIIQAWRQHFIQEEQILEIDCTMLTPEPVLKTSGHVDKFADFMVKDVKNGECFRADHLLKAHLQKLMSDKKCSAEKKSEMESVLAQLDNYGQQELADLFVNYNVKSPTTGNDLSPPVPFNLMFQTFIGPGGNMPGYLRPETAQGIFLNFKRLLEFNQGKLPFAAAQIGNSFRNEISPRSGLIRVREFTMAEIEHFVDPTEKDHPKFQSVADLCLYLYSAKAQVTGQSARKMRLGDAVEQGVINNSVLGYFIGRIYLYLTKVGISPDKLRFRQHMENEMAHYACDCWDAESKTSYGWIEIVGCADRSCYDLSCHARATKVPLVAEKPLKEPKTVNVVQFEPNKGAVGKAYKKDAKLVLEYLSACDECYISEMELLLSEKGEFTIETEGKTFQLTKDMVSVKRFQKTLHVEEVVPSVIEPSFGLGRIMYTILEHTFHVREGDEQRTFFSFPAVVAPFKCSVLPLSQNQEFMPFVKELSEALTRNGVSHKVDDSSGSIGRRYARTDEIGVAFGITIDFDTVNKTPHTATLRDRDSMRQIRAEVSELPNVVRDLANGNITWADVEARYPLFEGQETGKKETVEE"}}}
{"variants_of": "B1", "settings": "with gars_mouse Gars1, Q9CZD3"}
{"variant": "S644L", "effect of a mutation on the interaction": "increasing interaction strength"}
{"variant": "G580R", "effect of a mutation on the interaction": "increasing interaction strength"}
{"variant": "G294R", "effect of a mutation on the interaction": "disrupting interaction strength"}
{"variant": "D554N", "effect of a mutation on the interaction": "increasing interaction strength"}
{"variant": "L183P", "effect of a mutation on the interaction": "disrupting interaction strength"}
